IntAct's records for PubMed 19914239

B1: Folliculin (Rattus norvegicus (Rat)), Q76JQ2 (parent)
chain: MNAIVALCHFCELHGPRTLFCTEVLHAPLPQGAGSGDSPGQVEQAEEEEGGIQMSSRVRAHSPAEGASTDSSSPGPKKSDMCEGCRSLAVGHPGYISHDKETSIKYVSHQHPNHPQLFSIVRQACVRSLSCEVCPGREGPIFFGDEQHGFVFSHTFFIKDSLARGFQRWYSIIAIMMDRIYLINSWPFLLGKIRGIISELQGKALKVFEAEQFGCPQRAQRMNTAFTPFLHQRNGNAARSLTSLTSDDNLWACLHTSFAWLLKACGSRLTEKLLEGAPTEDTLVQMEKLADLEEESESWDNSEAEEEEKAPATAEGAEGRELASCPTESSFLSACGSWQPPKLSVFKSLRHMRQVLGAPSFRMLAWHVLMGNQVIWKSRDVNLVHSAFEVLRTMLPVGCVRIIPYSSQYEEAYRCNFLGLSPPVPIPAHVLASEFVVVVEVHTATRSNPHPAGCEDDQSLSKYEFVVTSGSPVAADRVGPTILNKMEAALTNQNLSVDVVDQCLVCLKEEWMNKVKVLFKFTKVDSRPKEDTQKLLSVLGASEEDNVKLLKFWMTGLSKTYKSHLMSTVRSPTAAESRN

Variants of: B1
Details: with aapk1_rat Prkaa1, P54645
Chain of aapk1_rat Prkaa1, P54645 (P54645 whole entry): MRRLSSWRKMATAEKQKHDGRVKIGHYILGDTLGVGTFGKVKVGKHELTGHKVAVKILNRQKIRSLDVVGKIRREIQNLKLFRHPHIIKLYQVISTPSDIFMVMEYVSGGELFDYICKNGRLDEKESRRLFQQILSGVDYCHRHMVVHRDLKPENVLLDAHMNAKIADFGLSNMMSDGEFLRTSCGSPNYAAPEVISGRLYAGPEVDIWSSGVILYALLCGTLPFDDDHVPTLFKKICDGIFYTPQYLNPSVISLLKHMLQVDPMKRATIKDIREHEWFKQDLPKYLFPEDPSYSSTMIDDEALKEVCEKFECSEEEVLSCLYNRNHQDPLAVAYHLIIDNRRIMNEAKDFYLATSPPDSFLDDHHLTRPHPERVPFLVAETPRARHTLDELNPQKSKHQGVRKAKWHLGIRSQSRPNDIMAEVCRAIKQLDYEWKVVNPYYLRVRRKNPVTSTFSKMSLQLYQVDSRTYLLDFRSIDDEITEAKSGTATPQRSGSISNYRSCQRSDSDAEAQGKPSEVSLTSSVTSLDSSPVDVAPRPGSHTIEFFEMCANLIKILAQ

Row | effect of a mutation on the interaction | Variant
1 | decreasing interaction | S62A

Variants of: B1
Details: with aapk1_rat Prkaa1, P54645
Remark: another data set of the same source

Row | effect of a mutation on the interaction | Variant
2 | increasing interaction | S62D
